Values belong to the binder of their own block, whether it stands above or below them.
How the values were obtained:
Myostatin [1] = biological target: T1, Myostatin (UniProt O14793 267-375); experiment: cell-based or functional assay
T1 sequence (looked up): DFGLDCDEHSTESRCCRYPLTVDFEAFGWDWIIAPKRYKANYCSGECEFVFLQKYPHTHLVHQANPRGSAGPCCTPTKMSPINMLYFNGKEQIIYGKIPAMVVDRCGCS

Activin A [2] = biological target: T2, Activin A (UniProt P08476 311-426); experiment: cell-based or functional assay
T2 sequence (looked up): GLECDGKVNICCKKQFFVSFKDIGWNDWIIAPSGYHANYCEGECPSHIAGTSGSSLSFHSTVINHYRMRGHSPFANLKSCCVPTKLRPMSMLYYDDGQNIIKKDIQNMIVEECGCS

Myostatin [3] = biological target: T1, Myostatin; experiment: surface plasmon resonance
Activin A [4] = biological target: T2, Activin A; experiment: surface plasmon resonance
Myostatin [5] = biological target: T1, Myostatin; experiment: SPR (BIAcore), myostatin as analyte

Myostatin IC50, cell-based assay for SMAD pathway (A204 luciferase reporter) (Myostatin [1]): 0.7 nM | Activin A IC50, cell-based assay for SMAD pathway (A204 luciferase reporter) (Activin A [2]): 0.8 nM | Kd (Myostatin [3]): 0.0075 nM | Kd (Activin A [4]): 0.0061 nM | Kd (Myostatin [5]): 0.0148 nM
B1: FS315K(76,81,82)E-mFc (Fc fusion)
chain: GNCWLRQAKNGRCQVLYKTELSKEECCSTGRLSTSWTEEDVNDNTLFKWMIFNGGAPNCIPCKETCENVDCGPGKECRMNEENKPRCVCAPDCSNITWKGPVCGLDGKTYRNECALLKARCKEQPELEVQYQGRCKKTCRDVFCPGSSTCVVDQTNNAYCVTCNRICPEPASSEQYLCGNDGVTYSSACHLRKATCLLGRSIGLAYEGKCIKAKSCEDIQCTGGKKCLWDFKVGRGRCSLCDELCPDSKSDEPVCASDNATYASECAMKEAACSSGVLLEVKHSGSCNSISEDTEEEEEDEDQDYSFPISSILEW
notes: K76, K81, K82 to glutamic acid, fused with murine Fc; also called FS-EEE-mFc; not shown: murine Fc (mFc)

Myostatin IC50, cell-based assay for SMAD pathway (A204 luciferase reporter) (Myostatin [1]): 0.5 nM | Activin A IC50, cell-based assay for SMAD pathway (A204 luciferase reporter) (Activin A [2]): 0.5 nM
B2: ActRIIB-Fc (Fc fusion, UniProt Q13705 19-134, looked up, not shown: a dimerising Fc or GST)
chain: SGRGEAETRECIYYNANWELERTNQSGLERCEGEQDKRLHCYASWRNSSGTIELVKKGCWLDDFNCYDRQECVATEENPQVYFCCCEGNFCNERFTHLPEAGGPEVTYEPPPTAPT

Source: patent US20180362604A1 (SHIRE HUMAN GENETIC THERAPIES, published 2018)
